Results published in patent CN116925225A (CAS BLOOD HEMATONOSIS HOSPITAL INST OF BLOOD HEMATONOSIS CAS, dated 2023).

Target: T1, 人CD7 (human CD7 on the surface of Jurkat, Molt4, CCRF-CEM and Hut78 cells) (human, UniProt P09564 26-240)
T1 construct: whole, on cells; also called CD7抗原
T1 sequence (looked up): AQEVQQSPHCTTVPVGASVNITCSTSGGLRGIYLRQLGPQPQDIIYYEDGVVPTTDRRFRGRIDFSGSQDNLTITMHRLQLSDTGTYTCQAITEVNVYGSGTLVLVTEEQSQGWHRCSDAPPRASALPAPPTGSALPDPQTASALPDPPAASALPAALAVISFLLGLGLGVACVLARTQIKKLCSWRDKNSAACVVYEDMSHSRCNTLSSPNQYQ
Assay: FACS, 0.15μg/100μl antibody on 2×10^5 Jurkat, Molt4, CEM and Hut78 cells (high in human CD7)

B1: 单克隆抗体HIT7 (CD7-HIT7, mouse anti-human CD7 monoclonal antibody) (antibody, V domains shown)
VH: QVQLQESGPGLVKPSQTVSLTCTVTGISITTGNYRWSWIRQFPGNKLEWIGYIYYSGIITYNPSRTSRTTITRDISKNQFFLEMNSLTAEDTATYYCARERGIYYDSLWYFDVWGAGTTVTVSS
VL: DIVLTQSPASLAVSLGQRATISCRASKSVSASGYSYMHWYQQKPGQPPKLLIYLASNLESGVPARFSGSGSGTDFTLNIHPVEEEDAVTYYCQHSRELPYTFGGGTKLEIKR
notes: also called 本发明单克隆抗体; 鼠抗人CD7单克隆抗体
binding result: binds
